Molecular target: Arabidopsis thaliana Receptor-Like Protein 30, GFP-tagged (RLP30-GFP) (Arabidopsis thaliana) (UniProt Q9MA83)
Chain of UniProt Q9MA83 (Q9MA83 31-786): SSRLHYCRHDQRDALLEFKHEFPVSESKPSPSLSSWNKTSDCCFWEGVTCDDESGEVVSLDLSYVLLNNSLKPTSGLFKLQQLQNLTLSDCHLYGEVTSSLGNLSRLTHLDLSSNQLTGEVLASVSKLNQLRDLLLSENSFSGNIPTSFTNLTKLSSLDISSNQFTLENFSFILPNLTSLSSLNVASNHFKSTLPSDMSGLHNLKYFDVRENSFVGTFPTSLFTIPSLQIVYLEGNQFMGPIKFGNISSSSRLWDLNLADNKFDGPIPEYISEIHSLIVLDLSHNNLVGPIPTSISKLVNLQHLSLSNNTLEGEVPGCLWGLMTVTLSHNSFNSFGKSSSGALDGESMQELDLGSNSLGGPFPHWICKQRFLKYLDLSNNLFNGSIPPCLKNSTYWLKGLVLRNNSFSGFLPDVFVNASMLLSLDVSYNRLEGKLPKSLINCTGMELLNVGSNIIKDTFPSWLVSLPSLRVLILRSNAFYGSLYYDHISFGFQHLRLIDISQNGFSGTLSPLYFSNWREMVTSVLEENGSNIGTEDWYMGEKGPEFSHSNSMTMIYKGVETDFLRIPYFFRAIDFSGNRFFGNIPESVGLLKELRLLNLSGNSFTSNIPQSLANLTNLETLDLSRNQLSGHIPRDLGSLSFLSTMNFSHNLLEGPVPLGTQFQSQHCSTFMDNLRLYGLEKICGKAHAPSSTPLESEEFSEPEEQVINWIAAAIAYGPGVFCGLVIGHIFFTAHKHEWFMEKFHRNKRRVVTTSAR

Substance: SMALL CYSTEINE-RICH PROTEIN FROM S. SCLEROTIORUM, myc-tagged (SCP^Ss-myc) (ligand)
- ethylene production in Arabidopsis Col-0 plants, half-maximal induction (EC50); the protein applied was His-tagged SCP^Ss from P. pastoris, affinity purified via His-Trap columns: 26 nM

Reference: article PMC10279758
